Data on one substance can be found in publication PMC11362559.

The assay addresses biotinylated I-A^b protein (SPR) (mouse). Nature of the assay: SPR.

Substance “mLAG3^ΔL1 (Loop 1 deletion construct of mouse LAG3) (from UniProt Q61790) (receptor)” gave a Kd of 14.8 µM.
